{
  "source": "the supplement of paper PMC10567573",
  "parents": {"B1": {"name": "SPDEF (parent)", "chain": "YPEDSSWAAKAPGASSREEPPEEP"}},
  "data": [
    {"variants_of": "B1", "experiment": "protein stability index of a GFP-peptide fusion (GPS, HEK-293T) (PSI 1-6); higher = more stable", "settings": "c terminus: a fixed tail appended", "values": [
      {"variant": "YPEDSSWAAKAPGASSREEPPEEH", "note": "[P24H]", "protein stability index": 3.42},
      {"variant": "YPEDSSWAAKAPGASSREEPPEER", "note": "[P24R]", "protein stability index": 3.86},
      {"variant": "YPEDSSWAAKAPGASSREEPPEEN", "note": "[P24N]", "protein stability index": 4.54},
      {"variant": "YPEDSSWAAKAPGASSREEPPEEE", "note": "[P24E]", "protein stability index": 3.48},
      {"variant": "YPEDSSWAAKAPGASSREEPPEEC", "note": "[P24C]", "protein stability index": 4.4},
      {"variant": "YPEDSSWAAKAPGASSRYEPPEEP", "note": "[E18Y]", "protein stability index": 3.46},
      {"variant": "YPEDSSWAAKAPGASSRIEPPEEP", "note": "[E18I]", "protein stability index": 4},
      {"variant": "YPEDSSWAAKAPGASSRNEPPEEP", "note": "[E18N]", "protein stability index": 3.43},
      {"variant": "YPEDSSWAAKAPGASSRVEPPEEP", "note": "[E18V]", "protein stability index": 4.17},
      {"variant": "YPEDSSWAAKAPGASSRTEPPEEP", "note": "[E18T]", "protein stability index": 3.24},
      {"variant": "YPEDSSWAAKAPGASSRFEPPEEP", "note": "[E18F]", "protein stability index": 3.05},
      {"variant": "YPEDSSWAAKAPGASSRWEPPEEP", "note": "[E18W]", "protein stability index": 3.3},
      {"variant": "YPEDSSWAAKAPGASSRHEPPEEP", "note": "[E18H]", "protein stability index": 3.86},
      {"variant": "YPEDSSWAAKAPGASSRREPPEEP", "note": "[E18R]", "protein stability index": 4.32},
      {"variant": "YPEDSSWAAKAPGASSRQEPPEEP", "note": "[E18Q]", "protein stability index": 3.37},
      {"variant": "YPEDSSWAAKAPGASSRMEPPEEP", "note": "[E18M]", "protein stability index": 3.77},
      {"variant": "YPEDSSWAAKAPGASSRSEPPEEP", "note": "[E18S]", "protein stability index": 4.18},
      {"variant": "YPEDSSWAAKAPGASSRDEPPEEP", "note": "[E18D]", "protein stability index": 4.86},
      {"variant": "YPEDSSWAAKAPGASSRCEPPEEP", "note": "[E18C]", "protein stability index": 2.82},
      {"variant": "YPEDSSWAAKAPGASSREEPGEEP", "note": "[P21G]", "protein stability index": 4.04},
      {"variant": "YPEDSSWAAKAPGASSREEPYEEP", "note": "[P21Y]", "protein stability index": 4.3},
      {"variant": "YPEDSSWAAKAPGASSREEPLEEP", "note": "[P21L]", "protein stability index": 4.04},
      {"variant": "YPEDSSWAAKAPGASSREEPEEEP", "note": "[P21E]", "protein stability index": 4.26},
      {"variant": "YPEDSSWAAKAPGASSREEPTEEP", "note": "[P21T]", "protein stability index": 3.64},
      {"variant": "YPEDSSWAAKAPGASSREEPHEEP", "note": "[P21H]", "protein stability index": 4.13},
      {"variant": "YPEDSSWAAKAPGASSREEPFEEP", "note": "[P21F]", "protein stability index": 3.76},
      {"variant": "YPEDSSWAAKAPGASSREEPREEP", "note": "[P21R]", "protein stability index": 4.25},
      {"variant": "YPEDSSWAAKAPGASSREEPAEEP", "note": "[P21A]", "protein stability index": 3.63},
      {"variant": "YPEDSSWAAKAPGASSREEPWEEP", "note": "[P21W]", "protein stability index": 3.66},
      {"variant": "YPEDSSWAAKAPGASSREEPKEEP", "note": "[P21K]", "protein stability index": 3.29},
      {"variant": "YPEDSSWAAKAPGASSREEPVEEP", "note": "[P21V]", "protein stability index": 3.91},
      {"variant": "YPEDSSWAAKAPGASSREEPNEEP", "note": "[P21N]", "protein stability index": 4.12},
      {"variant": "YPEDSSWAAKAPGASSREETPEEP", "note": "[P20T]", "protein stability index": 3.8},
      {"variant": "YPEDSSWAAKAPGASSREELPEEP", "note": "[P20L]", "protein stability index": 3.11},
      {"variant": "YPEDSSWAAKAPGASSREERPEEP", "note": "[P20R]", "protein stability index": 2.98},
      {"variant": "YPEDSSWAAKAPGASSREEQPEEP", "note": "[P20Q]", "protein stability index": 3.46},
      {"variant": "YPEDSSWAAKAPGASSREEGPEEP", "note": "[P20G]", "protein stability index": 4.43},
      {"variant": "YPEDSSWAAKAPGASSREEKPEEP", "note": "[P20K]", "protein stability index": 3.89},
      {"variant": "YPEDSSWAAKAPGASSREEVPEEP", "note": "[P20V]", "protein stability index": 4.26},
      {"variant": "YPEDSSWAAKAPGASSREEIPEEP", "note": "[P20I]", "protein stability index": 3.82},
      {"variant": "YPEDSSWAAKAPGASSREENPEEP", "note": "[P20N]", "protein stability index": 3.62},
      {"variant": "YPEDSSWAAKAPGASSREEEPEEP", "note": "[P20E]", "protein stability index": 4.2},
      {"variant": "YPEDSSWAAKAPGASSREEPPEKP", "note": "[E23K]", "protein stability index": 2.69},
      {"variant": "YPEDSSWAAKAPGASSREEPPEGP", "note": "[E23G]", "protein stability index": 3.9},
      {"variant": "YPEDSSWAAKAPGASSREEPPEAP", "note": "[E23A]", "protein stability index": 4.06},
      {"variant": "YPEDSSWAAKAPGASSREEPPESP", "note": "[E23S]", "protein stability index": 3.1},
      {"variant": "YPEDSSWAAKAPGASSREEPPELP", "note": "[E23L]", "protein stability index": 3.45},
      {"variant": "YPEDSSWAAKAPGASSREEPPENP", "note": "[E23N]", "protein stability index": 3.58},
      {"variant": "YPEDSSWAAKAPGASSREEPPEYP", "note": "[E23Y]", "protein stability index": 3.65},
      {"variant": "YPEDSSWAAKAPGASSREEPPERP", "note": "[E23R]", "protein stability index": 3.6},
      {"variant": "YPEDSSWAAKAPGASSREEPPEFP", "note": "[E23F]", "protein stability index": 3.89},
      {"variant": "YPEDSSWAAKAPGASSREEPPEDP", "note": "[E23D]", "protein stability index": 4.44},
      {"variant": "YPEDSSWAAKAPGASSREEPPECP", "note": "[E23C]", "protein stability index": 4.3},
      {"variant": "YPEDSSWAAKAPGASSQEEPPEEP", "note": "[R17Q]", "protein stability index": 4.06},
      {"variant": "YPEDSSWAAKAPGASSTEEPPEEP", "note": "[R17T]", "protein stability index": 4.06},
      {"variant": "YPEDSSWAAKAPGASSLEEPPEEP", "note": "[R17L]", "protein stability index": 3.62},
      {"variant": "YPEDSSWAAKAPGASSHEEPPEEP", "note": "[R17H]", "protein stability index": 4.67},
      {"variant": "YPEDSSWAAKAPGASSPEEPPEEP", "note": "[R17P]", "protein stability index": 3.85},
      {"variant": "YPEDSSWAAKAPGASSSEEPPEEP", "note": "[R17S]", "protein stability index": 4},
      {"variant": "YPEDSSWAAKAPGASSAEEPPEEP", "note": "[R17A]", "protein stability index": 3.11},
      {"variant": "YPEDSSWAAKAPGASSNEEPPEEP", "note": "[R17N]", "protein stability index": 4.14},
      {"variant": "YPEDSSWAAKAPGASSFEEPPEEP", "note": "[R17F]", "protein stability index": 4.27},
      {"variant": "YPEDSSWAAKAPGASSVEEPPEEP", "note": "[R17V]", "protein stability index": 4.3},
      {"variant": "YPEDSSWAAKAPGASSMEEPPEEP", "note": "[R17M]", "protein stability index": 4.22},
      {"variant": "YPEDSSWAAKAPGASSWEEPPEEP", "note": "[R17W]", "protein stability index": 4.23},
      {"variant": "YPEDSSWAAKAPGASSIEEPPEEP", "note": "[R17I]", "protein stability index": 4.85},
      {"variant": "YPEDSSWAAKAPGASSCEEPPEEP", "note": "[R17C]", "protein stability index": 3.96},
      {"variant": "YPEDSSWAAKAPGASSREVPPEEP", "note": "[E19V]", "protein stability index": 4.48},
      {"variant": "YPEDSSWAAKAPGASSREHPPEEP", "note": "[E19H]", "protein stability index": 3.12},
      {"variant": "YPEDSSWAAKAPGASSREFPPEEP", "note": "[E19F]", "protein stability index": 3.06},
      {"variant": "YPEDSSWAAKAPGASSREWPPEEP", "note": "[E19W]", "protein stability index": 3.53},
      {"variant": "YPEDSSWAAKAPGASSREDPPEEP", "note": "[E19D]", "protein stability index": 3.37},
      {"variant": "YPEDSSWAAKAPGASSREQPPEEP", "note": "[E19Q]", "protein stability index": 3.69},
      {"variant": "YPEDSSWAAKAPGASSRECPPEEP", "note": "[E19C]", "protein stability index": 3.58},
      {"variant": "YPEDSSWAAKAPGASSRETPPEEP", "note": "[E19T]", "protein stability index": 4.49},
      {"variant": "YPEDSSWAAKAPGASSRESPPEEP", "note": "[E19S]", "protein stability index": 4.97},
      {"variant": "YPEDSSWAAKAPGASSREMPPEEP", "note": "[E19M]", "protein stability index": 4.07},
      {"variant": "YPEDSSWAAKAPGASSRENPPEEP", "note": "[E19N]", "protein stability index": 4.32},
      {"variant": "YPEDSSWAAKAPGASSREKPPEEP", "note": "[E19K]", "protein stability index": 3.91},
      {"variant": "YPEDSSWAAKAPGASYREEPPEEP", "note": "[S16Y]", "protein stability index": 3.73},
      {"variant": "YPEDSSWAAKAPGASWREEPPEEP", "note": "[S16W]", "protein stability index": 3.71},
      {"variant": "YPEDSSWAAKAPGASSREEPPPEP", "note": "[E22P]", "protein stability index": 3.06},
      {"variant": "YPEDSSWAAKAPGASSREEPPHEP", "note": "[E22H]", "protein stability index": 4.06},
      {"variant": "YPEDSSWAAKAPGASSREEPPCEP", "note": "[E22C]", "protein stability index": 3.49},
      {"variant": "YPEDSSWAAKAPGASSREEPPTEP", "note": "[E22T]", "protein stability index": 4.31},
      {"variant": "YPEDSSWAAKAPGASSREEPPGEP", "note": "[E22G]", "protein stability index": 2.79},
      {"variant": "YPEDSSWAAKAPGASSREEPPKEP", "note": "[E22K]", "protein stability index": 3.88},
      {"variant": "YPEDSSWAAKAPGASSREEPPSEP", "note": "[E22S]", "protein stability index": 2.71},
      {"variant": "YPEDSSWAAKAPGASSREEPPVEP", "note": "[E22V]", "protein stability index": 4.23},
      {"variant": "YPEDSSWAAKAPGASSREEPPYEP", "note": "[E22Y]", "protein stability index": 3.78},
      {"variant": "YPEDSSWAAKAPGASSREEPPAEP", "note": "[E22A]", "protein stability index": 4.38},
      {"variant": "YPEDSSWAAKAPGASSREEPPLEP", "note": "[E22L]", "protein stability index": 3.92},
      {"variant": "YPEDSSWAAKAPGASSREEPPDEP", "note": "[E22D]", "protein stability index": 3.4},
      {"variant": "YPEDSSWAAKAPGASSREEPPFEP", "note": "[E22F]", "protein stability index": 3.43}
    ]}
  ]
}
